Assay results published in article PMC11480844 (2024).
Where a chain is given by its changes, count along the chain named.

B1: H2-Kb / Ed28 (parent complex)
chain 1: AQSVTQPDARVTVSEGASLQLRCKYSYFGTPYLFWYVQYPRQGLQLLLKYYPGDPVVQGVNGFEAEFSKSNSSFHLRKASVHWSDWAVYFCAVSPGSGGKLTLGAGTRLQVNL
chain 2: DSGVVQSPRHIIKEKGGRSVLTCIPISGHSNVVWYQQTLGKELKFLIQHYEKVERDKGFLPSRFSVQQFDDYHSEMNMSALELEDSAMYFCASSPRASDYTFGSGTRLLVI
chain 3: not shown
chain 4: IQKTPQIQVYSRHPPENGKPNILNCYVTQFHPPHIEIQMLKNGKKIPKVEMSDMSFSKDWSFYILAHTEFTPTETDTYACRVKHDSMAEPKTVYWDRDM
chain 5: SIINFEKL
B2: H2-Kb / Ed21 (parent complex)
chain 1: AQSVTQPDARVTVSEGASLQLRCKYSYFGTPYLFWYVQYPRQGLQLLLKYYPGDPVVQGVNGFEAEFSKSNSSFHLRKASVHWSDWAVYFCAVSMSGGYKVVFGSGTRLLVSP
chain 2: B1 chain 2 with A97Q, S98T
chain 3: not shown
chain 4: B1 chain 4
chain 5: SIINFEKL

Variants of: B1
Assay: % of reporter cells activated (NFAT-GFP), raw
Further: test concentration or dose not given here.

| Variant | ratio to parent |
| --- | --- |
| chain 5 S1N | 0.293 |
| chain 5 S1Q | 0.81 |
| chain 5 S1T | 1.13 |
| chain 5 S1H | 1 |
| chain 5 S1F | 0.965 |
| chain 5 S1L | 0.332 |
| chain 5 S1R | 0.321 |
| chain 5 S1A | 1.05 |
| chain 5 S1G | 0.898 |
| chain 5 S1Y | 0.825 |
| chain 5 S1D | 0.536 |
| chain 5 S1W | 0.723 |
| chain 5 S1K | 0.445 |
| chain 5 S1E | 0.798 |
| chain 5 S1C | 0.59 |
| chain 5 S1V | 0.67 |
| chain 5 S1I | 0.433 |
| chain 5 S1P | 0.693 |
| chain 5 K7R | 0.496 |
| chain 5 K7H | 0.81 |
| chain 5 K7A | 0.162 |
| chain 5 K7C | 0.0363 |
| chain 5 K7Q | 0.141 |
| chain 5 K7L | 0.244 |

| Variant | ratio to parent |
| --- | --- |
| chain 5 K7D | 0.00937 |
| chain 5 K7P | 0.145 |
| chain 5 K7I | 0.197 |
| chain 5 K7N | 0.242 |
| chain 5 K7T | 0.115 |
| chain 5 K7V | 0.159 |
| chain 5 K7M | 0.104 |
| chain 5 K7W | 0.407 |
| chain 5 K7Y | 0.48 |
| chain 5 K7F | 0.0786 |
| chain 5 K7S | 0.406 |
| chain 5 K7G | 0.185 |
| chain 5 I2A | 1.25 |
| chain 5 I2Q | 0.574 |
| chain 5 I2P | 1.2 |
| chain 5 I2L | 1.14 |
| chain 5 I2K | 0.837 |
| chain 5 I2W | 0.702 |
| chain 5 I2F | 1.01 |
| chain 5 I2E | 0.981 |
| chain 5 I2G | 1.06 |
| chain 5 I2D | 1.3 |
| chain 5 I2Y | 0.58 |
| chain 5 I2N | 0.898 |

| Variant | ratio to parent |
| --- | --- |
| chain 5 I2M | 0.857 |
| chain 5 I2H | 0.659 |
| chain 5 I2C | 1.15 |
| chain 5 I2R | 0.92 |
| chain 5 I2S | 1.14 |
| chain 5 I2V | 1.3 |
| chain 5 I3T | 1.31 |
| chain 5 I3F | 0.6 |
| chain 5 I3R | 0.134 |
| chain 5 I3A | 0.632 |
| chain 5 I3L | 0.98 |
| chain 5 I3M | 0.959 |
| chain 5 I3K | 0.651 |
| chain 5 I3C | 0.894 |
| chain 5 I3N | 1.16 |
| chain 5 I3H | 1.24 |
| chain 5 I3V | 1.08 |
| chain 5 I3S | 1.14 |
| chain 5 I3G | 0.836 |
| chain 5 I3E | 0.656 |
| chain 5 I3P | 0.898 |
| chain 5 I3D | 0.727 |
| chain 5 I3W | 0.592 |
| chain 5 I3Y | 0.369 |

| Variant | ratio to parent |
| --- | --- |
| chain 5 I3Q | 0.449 |
| chain 5 E6K | 0.702 |
| chain 5 E6V | 0.0103 |
| chain 5 E6D | 0.533 |
| chain 5 E6C | 0.0175 |
| chain 5 E6Q | 0.315 |
| chain 5 E6S | 0.039 |
| chain 5 E6P | 0.0742 |
| chain 5 E6L | 0.014 |
| chain 5 E6A | 0.238 |
| chain 5 E6H | 0.116 |
| chain 5 E6F | 0.013 |
| chain 5 E6N | 0.22 |
| chain 5 E6R | 0.0718 |
| chain 5 E6G | 0.651 |
| chain 5 E6W | 0.00894 |
| chain 5 E6T | 0.0253 |
| chain 5 E6I | 0.0144 |
| chain 5 E6Y | 0.0885 |
| chain 5 N4F | 0.0123 |
| chain 5 N4I | 0.167 |
| chain 5 N4A | 0.0295 |
| chain 5 N4H | 0.0455 |
| chain 5 N4L | 0.329 |

| Variant | ratio to parent |
| --- | --- |
| chain 5 N4K | 0.504 |
| chain 5 N4Y | 0.0195 |
| chain 5 N4E | 0.0544 |
| chain 5 N4V | 0.00909 |
| chain 5 N4T | 0.0349 |
| chain 5 N4D | 0.035 |
| chain 5 N4Q | 0.00495 |
| chain 5 N4R | 0.227 |
| chain 5 N4M | 0.00709 |
| chain 5 N4C | 0.0197 |
| chain 5 N4P | 0.00481 |
| chain 5 F5E | 0.483 |
| chain 5 F5G | 0.564 |
| chain 5 F5L | 0.844 |
| chain 5 F5H | 1 |
| chain 5 F5R | 0.774 |
| chain 5 F5P | 0.74 |
| chain 5 F5D | 0.687 |
| chain 5 F5N | 0.742 |
| chain 5 F5V | 0.772 |
| chain 5 F5A | 0.81 |
| chain 5 F5Y | 0.875 |
| chain 5 F5K | 0.56 |
| chain 5 F5C | 1.13 |

| Variant | ratio to parent |
| --- | --- |
| chain 5 F5T | 1.17 |
| chain 5 F5W | 0.773 |
| chain 5 F5M | 0.741 |
| chain 5 L8T | 0.832 |
| chain 5 L8I | 1.02 |
| chain 5 L8K | 0.584 |
| chain 5 L8M | 0.862 |
| chain 5 L8W | 0.685 |
| chain 5 L8R | 0.915 |
| chain 5 L8V | 0.761 |
| chain 5 L8P | 0.83 |
| chain 5 L8C | 0.616 |
| chain 5 L8H | 0.85 |
| chain 5 L8S | 0.563 |
| chain 5 L8D | 0.475 |
| chain 5 L8A | 0.709 |
| chain 5 L8F | 1.02 |
| chain 5 L8E | 0.493 |
| chain 5 L8Q | 0.602 |
| chain 5 L8G | 0.947 |

Variants of: B2
Assay: % of reporter cells activated (NFAT-GFP), raw

| Variant | ratio to parent |
| --- | --- |
| chain 5 K7N | 0.706 |
| chain 5 N4L | 0.618 |
| chain 5 L8G | 0.966 |
| chain 5 S1T | 0.927 |
| chain 5 E6V | 0.0269 |
| chain 5 E6Q | 0.918 |
| chain 5 F5I | 0.891 |
| chain 5 F5S | 0.886 |
| chain 5 F5N | 0.947 |
| chain 5 I2V | 1.04 |
